Results as given in patent US20250257126A1 (CAMBRIDGE ENTERPRISE, published 2025).

How the values were obtained:
[1] = target: T1, endogenous human LGR5 of cancer cell lines (human, UniProt O75473 22-907); test: cell-based or functional assay
T1 sequence: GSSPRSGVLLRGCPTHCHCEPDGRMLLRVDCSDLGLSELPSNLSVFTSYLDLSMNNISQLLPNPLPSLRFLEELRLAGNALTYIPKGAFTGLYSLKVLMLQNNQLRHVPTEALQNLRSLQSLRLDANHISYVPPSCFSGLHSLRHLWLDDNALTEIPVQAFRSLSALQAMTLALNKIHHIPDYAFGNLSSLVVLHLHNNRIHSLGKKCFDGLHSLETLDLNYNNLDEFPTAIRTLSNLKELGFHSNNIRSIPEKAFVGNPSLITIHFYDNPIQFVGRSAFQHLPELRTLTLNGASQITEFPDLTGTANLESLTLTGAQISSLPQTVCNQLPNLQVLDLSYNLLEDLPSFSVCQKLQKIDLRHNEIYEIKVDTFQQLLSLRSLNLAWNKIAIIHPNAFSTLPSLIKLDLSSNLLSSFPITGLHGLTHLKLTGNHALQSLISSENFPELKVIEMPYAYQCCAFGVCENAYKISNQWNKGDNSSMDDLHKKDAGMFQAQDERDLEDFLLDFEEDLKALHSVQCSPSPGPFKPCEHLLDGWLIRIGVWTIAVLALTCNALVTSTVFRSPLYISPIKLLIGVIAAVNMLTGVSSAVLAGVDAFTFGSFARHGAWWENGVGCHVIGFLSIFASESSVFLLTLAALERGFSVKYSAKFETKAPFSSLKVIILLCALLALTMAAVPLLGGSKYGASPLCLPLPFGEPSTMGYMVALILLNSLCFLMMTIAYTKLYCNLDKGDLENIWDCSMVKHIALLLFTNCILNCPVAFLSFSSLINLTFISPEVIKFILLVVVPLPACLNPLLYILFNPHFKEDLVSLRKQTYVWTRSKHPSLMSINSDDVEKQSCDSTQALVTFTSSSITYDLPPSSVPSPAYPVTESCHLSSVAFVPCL

[2] = target: T2, RAD-displayed Fragment 1A of human LGR5 (human); test: bio-layer interferometry (Octet), captured RAD-displayed fragment
T2 construct: also called Frag1A
T2 sequence (O75473 22-37, looked up): GSSPRSGVLLRGCPTH

human LGR6 transgene = target: T3, human LGR6 transgene (human, UniProt Q9HBX8 25-967); test: immunofluorescence of HEK293T cells expressing LGR-eGFP transgenes, stained with fluorescent clone 2
T3 construct: whole, on cells; Overexpressed in HEK293T cells with N-terminal HA tag, V2 receptor tail and eGFP; also tested as lysate; also called hLGR6; LGR6-eGFP
T3 sequence (looked up): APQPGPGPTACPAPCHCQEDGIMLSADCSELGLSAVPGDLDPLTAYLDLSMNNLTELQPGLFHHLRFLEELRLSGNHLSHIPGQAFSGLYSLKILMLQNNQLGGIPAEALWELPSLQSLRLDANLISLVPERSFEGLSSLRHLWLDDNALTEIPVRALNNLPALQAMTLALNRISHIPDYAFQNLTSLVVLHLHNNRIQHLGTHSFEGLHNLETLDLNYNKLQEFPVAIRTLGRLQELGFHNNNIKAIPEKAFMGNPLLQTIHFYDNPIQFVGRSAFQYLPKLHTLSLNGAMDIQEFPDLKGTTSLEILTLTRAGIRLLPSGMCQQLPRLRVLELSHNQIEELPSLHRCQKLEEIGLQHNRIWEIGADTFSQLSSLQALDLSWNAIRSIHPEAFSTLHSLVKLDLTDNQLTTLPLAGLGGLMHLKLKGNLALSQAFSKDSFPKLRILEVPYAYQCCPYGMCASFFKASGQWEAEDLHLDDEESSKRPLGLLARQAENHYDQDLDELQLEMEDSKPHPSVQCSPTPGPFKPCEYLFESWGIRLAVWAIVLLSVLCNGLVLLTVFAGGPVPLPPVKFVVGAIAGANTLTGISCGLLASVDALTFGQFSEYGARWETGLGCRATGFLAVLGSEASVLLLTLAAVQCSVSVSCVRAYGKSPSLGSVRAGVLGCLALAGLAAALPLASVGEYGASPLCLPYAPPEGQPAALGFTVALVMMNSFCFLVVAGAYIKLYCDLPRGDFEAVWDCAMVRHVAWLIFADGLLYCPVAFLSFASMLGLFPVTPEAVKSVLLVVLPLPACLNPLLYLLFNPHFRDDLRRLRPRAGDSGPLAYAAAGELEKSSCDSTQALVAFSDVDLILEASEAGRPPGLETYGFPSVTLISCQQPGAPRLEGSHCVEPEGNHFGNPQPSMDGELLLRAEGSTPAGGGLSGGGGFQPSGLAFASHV

murine LGR6 transgene = target: T4, murine LGR6 transgene (mouse, UniProt Q3UVD5 23-967); test: western blot of lysates of HEK293T cells expressing the LGR transgenes
T4 construct: whole, on cells; also called mLGR6
T4 sequence (looked up): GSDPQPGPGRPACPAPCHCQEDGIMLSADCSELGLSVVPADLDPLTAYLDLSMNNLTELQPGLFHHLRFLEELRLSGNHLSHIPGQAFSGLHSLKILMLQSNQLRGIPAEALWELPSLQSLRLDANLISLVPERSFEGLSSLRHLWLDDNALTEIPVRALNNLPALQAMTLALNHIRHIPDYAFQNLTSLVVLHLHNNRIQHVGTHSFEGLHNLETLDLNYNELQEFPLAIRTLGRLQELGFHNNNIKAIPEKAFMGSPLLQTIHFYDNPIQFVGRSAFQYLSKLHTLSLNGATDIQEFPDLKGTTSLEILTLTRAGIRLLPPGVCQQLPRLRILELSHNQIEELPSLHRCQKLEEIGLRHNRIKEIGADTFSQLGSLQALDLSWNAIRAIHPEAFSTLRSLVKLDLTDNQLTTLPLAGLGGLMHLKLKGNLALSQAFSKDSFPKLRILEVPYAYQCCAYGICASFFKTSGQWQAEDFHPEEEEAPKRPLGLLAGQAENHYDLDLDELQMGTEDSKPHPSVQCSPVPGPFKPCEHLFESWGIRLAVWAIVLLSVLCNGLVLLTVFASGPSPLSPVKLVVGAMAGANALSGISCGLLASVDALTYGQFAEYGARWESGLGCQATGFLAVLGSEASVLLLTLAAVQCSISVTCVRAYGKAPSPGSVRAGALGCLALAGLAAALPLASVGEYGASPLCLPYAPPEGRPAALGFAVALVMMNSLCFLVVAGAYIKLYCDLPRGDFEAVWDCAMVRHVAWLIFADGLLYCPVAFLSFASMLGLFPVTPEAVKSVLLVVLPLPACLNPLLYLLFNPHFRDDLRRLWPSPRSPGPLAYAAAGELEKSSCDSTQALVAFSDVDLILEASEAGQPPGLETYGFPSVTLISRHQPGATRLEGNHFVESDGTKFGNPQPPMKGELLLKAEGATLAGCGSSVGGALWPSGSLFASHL

murine LGR4 transgene = target: T5, murine LGR4 transgene (mouse, UniProt A2ARI4 25-951); test: western blot of lysates of HEK293T cells expressing HA-tagged LGR-eGFP transgenes, probed with hybridoma clone 2
T5 construct: whole, on cells; Overexpressed in HEK293T cells with N-terminal HA tag, V2 receptor tail and eGFP; also tested as lysate; also called mLGR4

murine LGR5 transgene = target: T6, murine LGR5 transgene (mouse, UniProt Q9Z1P4 22-907); test: flow cytometry of live HEK293T cells expressing LGR-eGFP transgenes, Fl-α-LGR5 against eGFP
T6 construct: whole, on cells; Overexpressed in HEK293T cells with N-terminal HA tag, V2 receptor tail and eGFP; also tested as lysate; also called mLGR5; mLGR5-eGFP
T6 sequence (looked up): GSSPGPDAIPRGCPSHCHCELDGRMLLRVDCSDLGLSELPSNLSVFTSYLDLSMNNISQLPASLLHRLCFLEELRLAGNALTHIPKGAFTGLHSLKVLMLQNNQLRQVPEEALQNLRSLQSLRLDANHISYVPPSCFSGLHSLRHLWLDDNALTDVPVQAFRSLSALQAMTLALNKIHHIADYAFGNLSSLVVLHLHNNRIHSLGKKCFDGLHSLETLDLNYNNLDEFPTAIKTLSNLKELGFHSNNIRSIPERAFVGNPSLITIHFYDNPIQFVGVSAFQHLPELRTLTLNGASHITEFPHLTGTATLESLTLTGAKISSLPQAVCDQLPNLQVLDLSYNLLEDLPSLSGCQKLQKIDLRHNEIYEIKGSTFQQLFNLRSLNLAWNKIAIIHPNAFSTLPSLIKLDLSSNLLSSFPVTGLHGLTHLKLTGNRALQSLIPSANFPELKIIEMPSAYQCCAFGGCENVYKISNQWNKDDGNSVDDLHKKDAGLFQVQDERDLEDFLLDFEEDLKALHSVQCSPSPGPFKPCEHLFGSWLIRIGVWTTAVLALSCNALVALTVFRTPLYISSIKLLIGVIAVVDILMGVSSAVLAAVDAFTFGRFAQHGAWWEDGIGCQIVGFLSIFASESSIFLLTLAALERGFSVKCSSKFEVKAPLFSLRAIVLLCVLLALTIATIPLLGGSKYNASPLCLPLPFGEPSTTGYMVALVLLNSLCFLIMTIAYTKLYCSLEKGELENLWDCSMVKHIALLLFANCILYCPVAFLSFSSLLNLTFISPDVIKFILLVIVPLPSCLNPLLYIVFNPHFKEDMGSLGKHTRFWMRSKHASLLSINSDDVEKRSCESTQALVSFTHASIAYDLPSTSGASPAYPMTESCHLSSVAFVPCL

human LGR4 transgene = target: T7, human LGR4 transgene (human, UniProt Q9BXB1 25-951); test: as above
T7 construct: whole, on cells; Overexpressed in HEK293T cells with N-terminal HA tag, V2 receptor tail and eGFP; also tested as lysate; also called hLGR4; LGR4-eGFP

[3] = target: T2, RAD-displayed Fragment 1A of human LGR5; test: bio-layer interferometry (Octet), captured RAD-displayed fragment, 10 µM Fragment 1 peptide included
α-LGR5 epitope peptide = target: T8, α-LGR5 epitope peptide (human); test: bio-layer interferometry (Octet), scFv absorbed to Ni-NTA biosensors, epitope peptide SEQ ID NO: 210 added; scFv fragment, not whole IgG
T8 construct: Peptide added to scFv-α-LGR5 absorbed on Ni-NTA biosensors; also called the peptide
T8 peptide: SSPRSGVLLRGCPTHCHC
Procedure: Binding affinities were determined by bio-layer interferometry measurements using the Octet platform.
Binding affinity was determined by biolayer interferometry on the Octet platform.

B1: α-LGR5 clone 2-ADC (antibody, mouse IgG2b, kappa, V domains shown)
VH: QVQLQQPGAELVKPGASVKLSCKASGYTFTNYWMQWVKQRPGQGLEWIGEIDPSDSYTNYNQKFKGKATLTVDTSSSTAYMQLSSLTSEDSAVYYCARSLSGYVDYWGQGTTLTVSS
VL: DIQMTQTTSSLSASLGDRVTISCRASQDISNRLNWYQQKPDGTVKLLISYRSRLHSGVPSRFSGSGSGTDYSLTISNLEQEDIATYFCQQGNSLPPTFGGGTKLEVRR
modifications: MMAE coupled through a divinyl pyrimidine bridging linker inserted within the heavy chain-light chain disulphide linkages, drug-to-antibody ratio of 4
notes: cleavable linker version; also called α-LGR5-ADC
- EC50 of cell killing, LoVo cells [1]: 9 nM
- EC50 of cell killing, NALM6 cells, single dose, three days [1]: 4 nM
- EC50 of cell killing, REH cells [1]: 10 nM
- estimated EC50 for organoid cell apoptosis (cleaved caspase 3), CRC organoid line 1 [1]: ~5 nM
- estimated EC50 for organoid cell apoptosis (cleaved caspase 3), CRC organoid line 2 [1]: ~100 nM
- Kd [2]: 2.7 nM

B2: α-LGR5 clone 2 (antibody, mouse IgG2b, kappa, V domains shown)
VH: B1 VH
VL: B1 VL
notes: Murine monoclonal antibody; In immunofluorescence and flow cytometry it carried a fluorophore (Alexa647 or DyLight 650) and is given as FI-α-LGR5 / FL-α-LGR5; also called a-LGR5; hybridoma clone 2
- binding result (human LGR6 transgene): no binding
- binding result (murine LGR6 transgene): no binding
- binding result (murine LGR4 transgene): no binding
- binding result (murine LGR5 transgene): no binding
- binding result (human LGR4 transgene): no binding
- Kd [3]: 1.1 nM

B3: scFv-α-LGR5 (scFv)
scFv: EIVMTQSPATLSLSPGERATLSCRASQDISNRLNWYQQKPGQAVRLLISYRSRRHTGIPARFSGSGSGTDYTLTISSLEPEDFAVYYCQQGNSLPPTFGGGTKLEIKGGGGSGGGGSGGGGSGGGGSQVQLVQSGAEVKKPGASVKVSCKASGYTFTNYWMQWVRQAPGQGLEWIGEIDPSDSYTNYNQKFQGRVTLTVDTSTSTAYMELSSLRSEDTAVYYCARSLSGYVDYWGQGTTVTVSS
notes: Made from human variant 4 (clone 2.4), VL-linker-VH; The protein in the Octet assay was 6xHis-tagged; also called scFv fragment; svFv-α-LGR5
- Kd (α-LGR5 epitope peptide): 0.77 nM

B4: α-LGR5 humanized (antibody, V domains shown)
VH: B1 VH
VL: DIQMTQTTSSLSASLGDRVTISCRASQDISNRLNWYQQKPDGTVKLLISYRSRLHSGVPSRFSGSGSGTDYSLTISNLEQEDIATYFCQQGNSLPPTFGGGTKLEVR
notes: Direct transposition of the murine clone 2 variable domains into the human IgG scaffold; also called α-LGR5 humanised
- Kd [2]: 3.4 nM

B5: α-LGR5 variant 4-ADC (antibody, human IgG1, kappa, V domains shown)
VH: QVQLVQSGAEVKKPGASVKVSCKASGYTFTNYWMQWVRQAPGQGLEWIGEIDPSDSYTNYNQKFQGRVTLTVDTSTSTAYMELSSLRSEDTAVYYCARSLSGYVDYWGQGTTVTVSS
VL: EIVMTQSPATLSLSPGERATLSCRASQDISNRLNWYQQKPGQAVRLLISYRSRRHTGIPARFSGSGSGTDYTLTISSLEPEDFAVYYCQQGNSLPPTFGGGTKLEIKR
modifications: MMAE coupled through a divinyl pyrimidine bridging linker inserted within the heavy chain-light chain disulphide linkages, drug-to-antibody ratio of 4
notes: ADC version of humanized variant 4 (clone 2.4); also called α-LGR5v4-ADC
- Kd [2]: 2 nM
